# Patent US20230203169 (published 2023)
# B1: Rituximab (antibody)
# chain 1: QVQLQQPGAELVKPGASVKMSCKASGYTFTSYNMHWVKQTPGRGLEWIGAIYPGNGDTSYNQKFKGKATLTADKSSSTAYMQLSSLTSEDSAVYYCARSTYYGGDWYFNVWGAGTTVTVSA
# chain 2: QIVLSQSPAILSASPGEKVTMTCRASSSVSYIHWFQQKPGSSPKPWIYATSNLASGVPVRFSGSGSGTSYSLTISRVEAEDAATYYCQQWTSNPPTFGGGTKLEIK
# Assays:
# [1] = molecular target: FcγRIIIa 158F (human) (UniProt P08637); assay: BLI
# [2] = molecular target: T1, CD20 (human, UniProt P11836); assay: FACS, Wil2-s cells, 4C
# T1 chain: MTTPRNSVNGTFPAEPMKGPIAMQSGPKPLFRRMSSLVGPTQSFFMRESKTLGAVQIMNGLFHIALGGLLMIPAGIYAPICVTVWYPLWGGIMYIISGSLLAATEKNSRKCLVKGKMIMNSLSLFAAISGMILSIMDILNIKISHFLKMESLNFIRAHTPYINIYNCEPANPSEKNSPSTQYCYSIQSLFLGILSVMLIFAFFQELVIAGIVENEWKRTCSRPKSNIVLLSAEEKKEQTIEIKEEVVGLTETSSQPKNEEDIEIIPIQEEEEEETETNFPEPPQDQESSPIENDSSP
# [3] = molecular target: T1, CD20; assay: FACS, Raji cells, 4C
# [4] = molecular target: T1, CD20; assay: FACS, Raji cells, 4C
# [5] = molecular target: T1, CD20; assay: FACS, Wil2-s cells, 4C
# FcγRIIIa 158F (human), sequence (P08637 17-208): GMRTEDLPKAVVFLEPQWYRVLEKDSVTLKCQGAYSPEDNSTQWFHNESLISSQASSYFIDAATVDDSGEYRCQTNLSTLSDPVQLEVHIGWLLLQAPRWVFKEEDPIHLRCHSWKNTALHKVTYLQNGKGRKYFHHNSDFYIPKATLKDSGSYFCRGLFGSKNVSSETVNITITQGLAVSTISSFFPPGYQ
Molecule,Kd [1] [nM],Kd [2] [nM],IC50 [3] [nM],Kd [4] [nM],IC50 [5] [nM]
Obinutuzumab (Gazyva),226,,,,
B1,,16,13.3,12.7,16.8
